This assay has as its target T1, Zfra16–31.
T1 construct: Zfra, residues 16-31; also called Zfra peptide of amino acid #16–31; source: synthetic peptide (manual synthesis, Genemed Synthesis)
T1 peptide: FRAHTQKNAATPFLAN
Description: SDS-PAGE of the incubated peptide (ladder of polymers); peptides alone (2 mM in 100 μl PBS) or mixed together, room temperature, 24 hr (legend; the text says sterile MilliQ water, 48 hr); non-reducing and reducing gels; less polymerization in MilliQ water. The conditions noted are these: both partners purified.

B1: Zfra1–15 (peptide)
peptide: MSSRRSSSCKYCEQD
notes: Zfra, residues 1-15; also called Zfra peptide of amino acid #1–15; source: synthetic peptide (manual synthesis, Genemed Synthesis)
As to B1, the binding result was “binds”.

For the origin of these results see article PMC4414150, “Zfra activates memory Hyal-2+ CD3− CD19− spleen cells to block cancer growth, stemness, and metastasis in vivo” (Oncotarget, 2015).
